Laboratory results reported in patent US6290951A, “Alteration of the cell cycle in vivo, and particularly for inducing apoptosis of tumor cells” (Alfacell Corporation, priority 1998, dated 2001).
Square brackets hold non-standard residues; d marks the D form. Peptide text beside a SMILES is read from it. Nle = CCCC[C@H](N)C(=O)O

Experiments:
[1] = system: DU-145 human prostate carcinoma; experiment: MTT assay, DU-145 cells
proteasome = conditions: Proc Natl Acad Sci USA 94:855-860, 1997; cited from earlier work
[2] = system: MDA-MB-231 human breast carcinoma; experiment: MTT assay, MDA-MB-231 cells
HL-60 tumor cells = conditions: proliferating HL-60 tumor cells; background art; cited from earlier work
[3] = system: A-549 human lung carcinoma; experiment: MTT assay, A-549 cells
[4] = A-549 cells, 10 μM LLnL with 0.1 to 1.0 μg/mL ranpirnase

In the case of `CC(=O)N[C@@H](CC(=O)O)C(=O)N[C@@H](CCC(=O)O)C(=O)N[C@H](C(=O)N[C@H](C=O)CC(=O)O)C(C)C` [Ac-DEVD-cho, N-acetyl-L-aspartyl-L-glutamyl-L-valinyl-L-aspartal, reference compound], the “increase of viability of cells versus LLnL alone” value ([1]; DU-145 cells treated with LLnL, without ranpirnase, Ac-DEVD-cho 50 μpM) is reported as “approximately 4 fold” and the “increase of viability of cells” value ([1]; DU-145 cells treated with ranpirnase and 25 μpM LLnL, Ac-DEVD-cho 50 μpM) is reported as 2- to 3 fold.

In the case of `CSCC[C@@H](C=O)NC(=O)[C@H](CC(C)C)NC(=O)[C@H](CC(C)C)NC(C)=O` [LLM, N-acetyl-leucinyl-leucinyl-methioninal, reference compound] (Ac-Leu-Leu-Met-aldehyde), the “inhibition of the activity of proteasome” value (proteasome) is listed as “does not significantly inhibit” and the “effect on growth and viability versus untreated controls” value ([2]; MDA-MB-231 cells, 25 μM LLM alone) is listed as “no significant effect”.

For `CCCC[C@@H](C=O)NC(=O)[C@H](CC(C)C)NC(=O)[C@H](CC(C)C)NC(C)=O` [LLnL, N-acetyl-leucinyl-leucinyl-norleucinal] (Ac-Leu-Leu-[Nle]-aldehyde), the cell cycle arrest (HL-60 tumor cells) is given as “arrested the HL-60 cells in the G1 phase”.

For `CC(=O)N[C@@H](CC(C)C)C(=O)N[C@H](C(=O)N[C@H](C=O)Cc1ccccc1)C(C)C` [LVP, N-acetyl-leucinyl-valinyl-phenylalaninal, reference compound], the “augmentation of the anti-tumor activity of ranpirnase” value ([3]; A-549 cell line, peptide aldehyde added to ranpirnase) was “augmented” and the “augmentation of the anti-tumor activity of ranpirnase” value ([1]; DU-145 cell line, peptide aldehyde added to ranpirnase) was “augmented”.

For `COc1cccc2c1C(=O)c1c(O)c3c(c(O)c1C2=O)C[C@@](O)(C(=O)CO)C[C@@H]3O[C@H]1C[C@H](N)[C@H](O)[C@H](C)O1` [doxorubicin, reference compound], the “effect of adding doxorubicin on cell growth or cell viability” value ([2]; MDA-MB-231 cells, ranpirnase plus 0.1 μg/mL doxorubicin plus 15 μM LLnL versus ranpirnase plus LLnL) was “did not significantly decrease”.

B1: ranpirnase: USAN generic name of the pharmaceutical described in U.S. Pat. No. 5,559,212, known by the registered trademark ONCONASE (protein, UniProt P22069 1-104, looked up)
Protein P-30: QDWLTFQKKHITNTRDVDCDNIMSTNLFHCKDKNTFIYSRPEPVKAICKGIIASKNVLTTSEFYLSDCNVTSRPCKYKLKKSTNKFCVTCENQAPVHFVGVGSC
With B1 the “interaction of ranpirnase and LLnL” value ([3]; A-549 cell line) was “synergistically”, the “anti-tumor activity of ranpirnase combined with LLnL versus each single agent (Newman-Keuls)” value ([3]; A-549 cells) was “significantly greater” and the “effect of the combination versus ranpirnase alone” value [3, 4] was “greater than the effect of ranpirnase alone”. For the same molecule, the “interaction of ranpirnase and LLnL” value [3, 4] was “not synergistic”, the “interaction of ranpirnase and LLnL” value ([3]; A-549 cells, higher concentrations (15 to 35) μM of LLnL) was “synergistic” and the “mean ED50 value for ranpirnase” value ([3]; A-549 cells, in combination with 10 μM LLnL) was 1.356 µg/mL. The “mean ED50 value for ranpirnase” value ([3]; A-549 cells, in combination with 15 μM LLnL) was 0.640 µg/mL, the “mean ED50 value for ranpirnase” value ([3]; A-549 cells, in combination with 25 μM LLnL) was 0.060 µg/mL and the “mean ED50 value for ranpirnase” value ([3]; A-549 cells, in combination with 35 μM LLnL) was “less than 0.001 μg/mL”. For the same molecule, the “mean ED50 value for ranpirnase” value ([3]; A-549 cells, ranpirnase alone) was 3.944 µg/mL, the “interaction of ranpirnase and LLnL” value ([1]; DU-145 cell line) was “synergistically” and the “anti-tumor activity of ranpirnase combined with LLnL versus each single agent (Newman-Keuls)” value ([1]; DU-145 cells) was “significantly greater”. The “interaction of ranpirnase with LLnL” value ([1]; DU-145 cells, all concentrations of ranpirnase, 10 to 25 μM LLnL) was “synergistic”, the “ED50 value for ranpirnase” value ([1]; DU-145 cells, combined with 10 μM LLnL) was 1.231 µg/mL and the “ED50 value for ranpirnase” value ([1]; DU-145 cells, combined with 15 μM LLnL) was 0.001 µg/mL. The “ED50 value for ranpirnase” value ([1]; DU-145 cells, combined with 25 μM LLnL) was under 0.001 µg/mL, the “ED50 value for ranpirnase” value ([1]; DU-145 cells, ranpirnase alone) was 42.276 µg/mL and the “interaction of ranpirnase and LLnL” value ([2]; MDA-MB-231 cell line) was “synergistically”. For the same molecule, the “anti-tumor activity of ranpirnase combined with LLnL versus each single agent (Newman-Keuls)” value ([2]; MDA-MB-231 cells) was “significantly greater”, the “activity of combination of ranpirnase and LLM versus ranpirnase alone” value ([2]; MDA-MB-231 cells, 25 μM LLM) was “no significant difference” and the “decrease of mean ED50 value for ranpirnase” value ([2]; MDA-MB-231 cells, additional treatment with 25 μM LLM) was “approximately two-fold”. For the same molecule, the “decrease of mean ED50 value for ranpirnase versus ranpirnase alone” value ([2]; MDA-MB-231 cells, in combination with 0.1 μg/mL (approximately 0.17 μM) doxorubicin) was 2.2 fold, the “mean ED50 value for ranpirnase” value ([2]; MDA-MB-231 cells, in combination with 10 μM LLnL) was 0.037 µg/mL and the “mean ED50 value for ranpirnase” value ([2]; MDA-MB-231 cells, in combination with 15 μM LLnL) was 0.022 µg/mL. The “mean ED50 value for ranpirnase” value ([2]; MDA-MB-231 cells, in combination with 25 μM LLnL) was 0.001 µg/mL, the “interaction of ranpirnase with LLnL” value ([2]; MDA-MB-231 cells, ranpirnase 0.1 to 10.0 μg/mL, LLnL 5 to 25 μM (particularly 10 to 25 μM)) was “synergistically” and the “mean ED50 value for ranpirnase” value ([2]; MDA-MB-231 cells, ranpirnase alone) was 1.434 µg/mL.
